Measured values published in paper PMC6098246, “Zinc(II) binding on human wild-type ISCU and Met140 variants modulates NFS1 desulfurase activity” (Biochimie, 2018).

Assays:
[1] = biological target: T1, NFS1-ISD11-ACP (SDA) complex (human | E. coli, UniProt Q9Y697 56-457; Q9HD34 1-91; P0A6A8 1-78); test: BLI; biotinylated ISCU on streptavidin sensors, SDA 10 uM to 1.56 nM in solution; 25 °C; 50 mM HEPES pH 7.5, 200 mM NaCl, 5% glycerol, 2 mM TCEP, 5 mM DTT, 0.5 mg/mL BSA, with 100 uM ZnCl2 (zinc-bound ISCU); Kd from response vs. [NFS1], one site-specific binding fit; conditions: both partners purified
T1 construct: human cysteine desulfurase NFS1, non-tagged, construct Δ1-55; human ISD11 (LYRM4), His-tagged; E. coli acyl carrier protein (ACP) of the expression host, co-purified with NFS1-ISD11; PLP was added during the purification; also called NFS1-ISD11-ACP desulfurase complex; NFS1-ISD11 complex; source: co-purified with E. coli ACP; copies: + +

[2] = biological target: T1, NFS1-ISD11-ACP (SDA) complex; test: BLI; biotinylated ISCU on streptavidin sensors, SDA 10 uM to 1.56 nM in solution; 25 °C; 50 mM HEPES pH 7.5, 200 mM NaCl, 5% glycerol, 2 mM TCEP, 5 mM DTT, 0.5 mg/mL BSA, with 300 uM EDTA (zinc-depleted ISCU); Kd from response vs. [NFS1], one site-specific binding fit; conditions: both partners purified

T1 sequence (Q9Y697 56-457, chain 1 of 3): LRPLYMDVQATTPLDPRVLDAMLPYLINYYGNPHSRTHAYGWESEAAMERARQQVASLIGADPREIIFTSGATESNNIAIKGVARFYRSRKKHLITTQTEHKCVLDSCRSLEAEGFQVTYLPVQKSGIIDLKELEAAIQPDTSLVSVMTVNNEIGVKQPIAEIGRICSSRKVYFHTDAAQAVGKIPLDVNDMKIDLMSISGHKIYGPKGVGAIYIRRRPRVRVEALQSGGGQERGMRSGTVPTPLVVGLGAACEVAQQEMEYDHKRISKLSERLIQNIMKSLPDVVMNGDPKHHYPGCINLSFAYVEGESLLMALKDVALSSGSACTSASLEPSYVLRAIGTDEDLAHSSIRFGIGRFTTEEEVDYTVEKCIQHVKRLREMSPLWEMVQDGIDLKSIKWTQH
T1 sequence (Q9HD34 whole entry, chain 2 of 3): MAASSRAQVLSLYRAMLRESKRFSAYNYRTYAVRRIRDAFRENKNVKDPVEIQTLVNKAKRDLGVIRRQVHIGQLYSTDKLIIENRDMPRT
T1 sequence (P0A6A8 whole entry, chain 3 of 3): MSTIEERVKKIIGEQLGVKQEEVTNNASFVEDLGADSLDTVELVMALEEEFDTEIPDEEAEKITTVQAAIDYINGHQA

| Binder | Kd [1] | Kd [2] |
| --- | --- | --- |
| biotinylated human ISCU wild-type (Δ1-34) (natural protein, UniProt Q9H1K1 35-167, looked up, biotin (site not stated), human ISCU, construct Δ1-34 of the 167-aa precursor (133-aa mature protein without the mitochondrial signal peptide); the two conditions are two assays; Measured mass of the apo-protein 14604 Da; also called ISCUWT; WT; source: E. coli BL21 (DE3)-R3-pRARE2, purified (Ni Sepharose, Superdex S75, His-tag removed by TEV)) YHKKVVDHYENPRNVGSLDKTSKNVGTGLVGAPACGDVMKLQIQVDEKGKIVDARFKTFGCGSAIASSSLATEWVKGKTVEEALTIKNTDIAKELCLPPVKLHCSMLAEDAIKAALADYKLKQEPKKGEAEKK | 0.16 µM | 0.0878 µM |
| biotinylated human ISCU M140I (Δ1-34) (natural protein, UniProt Q9H1K1 35-167, looked up, biotin (site not stated), human ISCU, construct Δ1-34 of the 167-aa precursor, variant M140I; source: E. coli BL21 (DE3)-R3-pRARE2, purified (Ni Sepharose, Superdex S75, His-tag removed by TEV)) YHKKVVDHYENPRNVGSLDKTSKNVGTGLVGAPACGDVMKLQIQVDEKGKIVDARFKTFGCGSAIASSSLATEWVKGKTVEEALTIKNTDIAKELCLPPVKLHCSILAEDAIKAALADYKLKQEPKKGEAEKK | 0.194 µM | 0.0973 µM |
| biotinylated human ISCU M140V (Δ1-34) (natural protein, UniProt Q9H1K1 35-167, looked up, biotin (site not stated), human ISCU, construct Δ1-34 of the 167-aa precursor, variant M140V; source: E. coli BL21 (DE3)-R3-pRARE2, purified (Ni Sepharose, Superdex S75, His-tag removed by TEV)) YHKKVVDHYENPRNVGSLDKTSKNVGTGLVGAPACGDVMKLQIQVDEKGKIVDARFKTFGCGSAIASSSLATEWVKGKTVEEALTIKNTDIAKELCLPPVKLHCSVLAEDAIKAALADYKLKQEPKKGEAEKK | 0.218 µM | 0.0855 µM |
| biotinylated human ISCU M140L (Δ1-34) (natural protein, UniProt Q9H1K1 35-167, looked up, biotin (site not stated), human ISCU, construct Δ1-34 of the 167-aa precursor, variant M140L; source: E. coli BL21 (DE3)-R3-pRARE2, purified (Ni Sepharose, Superdex S75, His-tag removed by TEV)) YHKKVVDHYENPRNVGSLDKTSKNVGTGLVGAPACGDVMKLQIQVDEKGKIVDARFKTFGCGSAIASSSLATEWVKGKTVEEALTIKNTDIAKELCLPPVKLHCSLLAEDAIKAALADYKLKQEPKKGEAEKK | 0.181 µM | 0.11 µM |
